± gives the uncertainty stated by the source.
Experiment: self-splicing fitness, log relative to wild type (ln ratio); higher = more splicing; Tetrahymena group I intron in knt gene, E. coli kanamycin selection, DiMSum; sequences stand for … in CUCUCU…GGAGGGAAAAGUUAUCAGGCAUGCACCUGGUAGCUAGUCUUUAAACCAAUAGAUUGCAUCGGUUUAAAAGGCAAGACCGUCAAAUUGCGGGAAAGGGGUCAACAGCCGUUCAGUACCAAGUCUCAGGGGAAACUUUGAGAUGGCCUUGCAAAGGGUAUGGUAAUAAGCUGACGGACAUGGUCCUAACCACGCAGCCAAGUCCUAAGUCAACAGAUCUUCUGUUGAUAUGGAUGCAGUUCACAGACUAAAUGUCGGUCGGGGAAGAUGUAUUCUUCUCAUAAGAUAUAGUCGGACCUCUCCUUAAUGGGAGCUAGCGGAUGAAGUGAUGCAACACUGGAGCCGCUGGGAACUAAUUUGUAUGCGAAAGUAUAUUGAUUAGUUUUGGAGUACUCGUGGUCG
Procedure, shortened: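 The eight P1ex-region nucleotides of an intron in the knt kanamycin-resistance gene on pET-22b(+) were all randomised and the library put into E. coli BL21(DE3). Six replicate transformations were grown overnight at 37°C or 30°C on LB agar with or without 25 μg/mL kanamycin, together with 100 μg/mL carbenicillin, 50 μM IPTG and 0.2% rhamnose. Colonies were pooled and amplicon-sequenced on an Illumina HiSeq 2500. Fitness from DiMSum is the error-weighted combination of wild-type-normalised replicate fold changes, kanamycin over none.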

Row | Sequence | self-splicing fitness (ln) (30 °C) | self-splicing fitness (ln) (37 °C)
1 | GCACAGCAAUAUUACGGUGA | -0.308 ± 0.07 | -0.455 ± 0.079
2 | GCACAGCAAUAUUACGUAAC | -1.83 ± 0.092 | -0.651 ± 0.11
3 | GCACAGCAAUAUUACGUAAG | -1.38 ± 0.06 | -0.717 ± 0.079
4 | GCACAGCAAUAUUACGUGAG | 0.0789 ± 0.047 | 0.0342 ± 0.06
5 | GCACAGCAAUAUUACGUUGU | -3.71 ± 0.12 | -2.74 ± 0.12
6 | GCAGAGCAAUAUUACGACGG | -2.22 ± 0.2 | -1.21 ± 0.18
7 | GCAGAGCAAUAUUACGACUC | -1.83 ± 0.15 | -1.38 ± 0.17
8 | GCAGAGCAAUAUUACGCAGG | -4.06 ± 0.39 | -2.2 ± 0.22
9 | GCAGAGCAAUAUUACGCGAC | – | -2.27 ± 0.36
10 | GCAGAGCAAUAUUACGCUUU | – | -3.01 ± 0.27
11 | GCAGAGCAAUAUUACGGAAG | -2.98 ± 0.28 | -1.65 ± 0.18
12 | GCAGAGCAAUAUUACGGUGC | -2.67 ± 0.19 | -1.9 ± 0.24
13 | GCAGAGCAAUAUUACGGUUC | -2.66 ± 0.28 | -1.58 ± 0.24
14 | GCAGAGCAAUAUUACGGUUU | -2.82 ± 0.17 | -2.08 ± 0.15
15 | GCAGAGCAAUAUUACGUAUG | -2.86 ± 0.35 | -1.4 ± 0.42
16 | GCAGAGCAAUAUUACGUUUC | -4.1 ± 0.39 | -2.27 ± 0.44
17 | GCAUAGCAAUAUUACGAAUU | -2.48 ± 0.2 | -1.61 ± 0.2
18 | GCAUAGCAAUAUUACGAGAG | -2.71 ± 0.27 | -2.35 ± 0.21
19 | GCAUAGCAAUAUUACGAGCA | -1.39 ± 0.23 | -0.718 ± 0.2
20 | GCAUAGCAAUAUUACGAUAG | -3.12 ± 0.17 | -2.34 ± 0.2
21 | GCAUAGCAAUAUUACGAUCG | -1.04 ± 0.11 | -0.34 ± 0.12
22 | GCAUAGCAAUAUUACGCACU | -0.629 ± 0.09 | -0.277 ± 0.13
23 | GCAUAGCAAUAUUACGCAGG | -2.58 ± 0.21 | -1.35 ± 0.22
24 | GCAUAGCAAUAUUACGCCAA | -4.09 ± 0.4 | -2.76 ± 0.35
25 | GCAUAGCAAUAUUACGCCAG | -2.88 ± 0.42 | -2.94 ± 0.48

Row | Sequence | self-splicing fitness (ln) (30 °C) | self-splicing fitness (ln) (37 °C)
26 | GCAUAGCAAUAUUACGCGCU | – | -2.39 ± 0.31
27 | GCAUAGCAAUAUUACGCGGU | -3.29 ± 0.16 | -1.77 ± 0.16
28 | GCAUAGCAAUAUUACGGACG | -1.7 ± 0.088 | -0.659 ± 0.12
29 | GCAUAGCAAUAUUACGGCCU | -1.44 ± 0.11 | -0.683 ± 0.11
30 | GCAUAGCAAUAUUACGGCGA | -0.526 ± 0.15 | -0.873 ± 0.15
31 | GCAUAGCAAUAUUACGGCUA | -1.16 ± 0.069 | -0.431 ± 0.069
32 | GCAUAGCAAUAUUACGGUCC | -1.71 ± 0.098 | -1.48 ± 0.11
33 | GCAUAGCAAUAUUACGGUUG | -2.82 ± 0.099 | -1.39 ± 0.11
34 | GCAUAGCAAUAUUACGUCAA | -2.89 ± 0.25 | -1.82 ± 0.18
35 | GCAUAGCAAUAUUACGUCGG | -2.24 ± 0.14 | -1.47 ± 0.13
36 | GCAUAGCAAUAUUACGUGGC | -2.72 ± 0.32 | -2.15 ± 0.31
37 | GCAUAGCAAUAUUACGUGGG | -3.68 ± 0.13 | -2.82 ± 0.11
38 | GCAUAGCAAUAUUACGUUCA | -1.41 ± 0.11 | -0.882 ± 0.13
39 | GCAUAGCAAUAUUACGUUUC | -4.77 ± 0.26 | -3.01 ± 0.15
40 | GCCAAGCAAUAUUACGACGC | -0.669 ± 0.11 | 0.3 ± 0.14
41 | GCCAAGCAAUAUUACGAGCG | -2.34 ± 0.12 | -1.08 ± 0.13
42 | GCCAAGCAAUAUUACGAGGA | -1.37 ± 0.1 | -0.561 ± 0.1
43 | GCCAAGCAAUAUUACGAUAU | -2.75 ± 0.12 | -2.01 ± 0.13
44 | GCCAAGCAAUAUUACGAUCA | -3.6 ± 0.21 | -1.2 ± 0.11
45 | GCCAAGCAAUAUUACGAUGG | -3.61 ± 0.15 | -1.79 ± 0.16
46 | GCCAAGCAAUAUUACGCCAA | -2.4 ± 0.23 | -1.19 ± 0.15
47 | GCCAAGCAAUAUUACGCCCC | -1.02 ± 0.21 | -0.946 ± 0.22
48 | GCCAAGCAAUAUUACGCCCG | -2.72 ± 0.29 | -0.836 ± 0.32
49 | GCCAAGCAAUAUUACGCUGC | -3.01 ± 0.27 | -2.04 ± 0.28
50 | GCCAAGCAAUAUUACGCUUG | -3.72 ± 0.12 | -2.41 ± 0.14

Row | Sequence | self-splicing fitness (ln) (30 °C) | self-splicing fitness (ln) (37 °C)
51 | GCCAAGCAAUAUUACGGAUC | -0.959 ± 0.071 | -0.179 ± 0.098
52 | GCCAAGCAAUAUUACGGGUU | -2.48 ± 0.09 | -1.79 ± 0.1
53 | GCCAAGCAAUAUUACGGUGG | -3.54 ± 0.15 | -1.26 ± 0.14
54 | GCCAAGCAAUAUUACGUAAG | -1.37 ± 0.11 | -0.513 ± 0.13
55 | GCCAAGCAAUAUUACGUCUG | -3.62 ± 0.19 | -2.02 ± 0.16
56 | GCCAAGCAAUAUUACGUGCC | -3.36 ± 0.25 | -0.392 ± 0.17
57 | GCCAAGCAAUAUUACGUUCG | -3.08 ± 0.17 | -1.22 ± 0.13
58 | GCCAAGCAAUAUUACGUUGC | -2.91 ± 0.13 | -0.915 ± 0.15
59 | GCCAAGCAAUAUUACGUUUU | -2.86 ± 0.085 | -1.3 ± 0.093
60 | GCCCAGCAAUAUUACGAAGA | -1.46 ± 0.12 | -0.344 ± 0.14
61 | GCCCAGCAAUAUUACGACGG | -3.59 ± 0.25 | -3.13 ± 0.33
62 | GCCCAGCAAUAUUACGAUUA | -1.71 ± 0.1 | -0.936 ± 0.089
63 | GCCCAGCAAUAUUACGCACG | -3.39 ± 0.2 | –
64 | GCCCAGCAAUAUUACGCCGG | -3.34 ± 0.27 | -2.9 ± 0.47
65 | GCCCAGCAAUAUUACGCGAC | -2.9 ± 0.17 | -1.55 ± 0.14
66 | GCCCAGCAAUAUUACGGAAC | -1 ± 0.055 | -0.0936 ± 0.079
67 | GCCCAGCAAUAUUACGGACC | -3.47 ± 0.23 | -2.94 ± 0.31
68 | GCCCAGCAAUAUUACGGGAU | -1.74 ± 0.081 | -1.25 ± 0.1
69 | GCCCAGCAAUAUUACGGUAC | -1.27 ± 0.059 | -0.241 ± 0.073
70 | GCCCAGCAAUAUUACGUACA | -2.17 ± 0.1 | -0.789 ± 0.096
71 | GCCCAGCAAUAUUACGUCAU | -2.82 ± 0.1 | -1.29 ± 0.097
72 | GCCCAGCAAUAUUACGUCCU | -1.19 ± 0.11 | -0.722 ± 0.17
73 | GCCCAGCAAUAUUACGUCUU | -0.849 ± 0.061 | -0.668 ± 0.09
74 | GCCCAGCAAUAUUACGUGUA | -0.725 ± 0.046 | -0.0902 ± 0.058
75 | GCCCAGCAAUAUUACGUUCG | -3.71 ± 0.18 | -2.52 ± 0.22

Row | Sequence | self-splicing fitness (ln) (30 °C) | self-splicing fitness (ln) (37 °C)
76 | GCCGAGCAAUAUUACGACUA | -0.948 ± 0.16 | -2.21 ± 0.27
77 | GCCGAGCAAUAUUACGAUUA | -1.44 ± 0.13 | -1.39 ± 0.15
78 | GCCGAGCAAUAUUACGAUUC | -1.3 ± 0.13 | 0.294 ± 0.17
79 | GCCGAGCAAUAUUACGGACC | -2.47 ± 0.35 | -1.51 ± 0.39
80 | GCCGAGCAAUAUUACGGCAU | -4.31 ± 0.46 | -3.06 ± 0.35
81 | GCCGAGCAAUAUUACGGCUU | – | -2.08 ± 0.41
82 | GCCGAGCAAUAUUACGGUAG | -1.99 ± 0.15 | -3.24 ± 0.33
83 | GCCGAGCAAUAUUACGGUGC | -2.75 ± 0.24 | -2.48 ± 0.29
84 | GCCGAGCAAUAUUACGUACG | -2.46 ± 0.43 | -1.56 ± 0.26
85 | GCCGAGCAAUAUUACGUCAG | -3.33 ± 0.16 | -1.87 ± 0.19
86 | GCCGAGCAAUAUUACGUCGA | -2.36 ± 0.2 | -0.182 ± 0.14
87 | GCCGAGCAAUAUUACGUCGG | -4.39 ± 0.46 | –
88 | GCCGAGCAAUAUUACGUGGA | -1.68 ± 0.12 | -1.76 ± 0.15
89 | GCCUAGCAAUAUUACGAACA | -2.17 ± 0.22 | -1.03 ± 0.19
90 | GCCUAGCAAUAUUACGACCA | -1.08 ± 0.14 | -1.34 ± 0.13
91 | GCCUAGCAAUAUUACGACCC | -1.59 ± 0.21 | -0.272 ± 0.25
92 | GCCUAGCAAUAUUACGAGAC | -1.85 ± 0.16 | 0.662 ± 0.12
93 | GCCUAGCAAUAUUACGAUGU | -0.317 ± 0.081 | 0.35 ± 0.12
94 | GCCUAGCAAUAUUACGCCAU | – | -1.68 ± 0.45
95 | GCCUAGCAAUAUUACGCCGU | -1.01 ± 0.15 | -0.292 ± 0.13
96 | GCCUAGCAAUAUUACGCGCG | -1.66 ± 0.23 | -1.18 ± 0.22
97 | GCCUAGCAAUAUUACGCUUA | -1.01 ± 0.1 | -0.807 ± 0.11

— the supplement of paper PMC7877785
